The text below walks through data of publication PMC2241622, “Aminopeptidase B, a glucagon-processing enzyme: site directed mutagenesis of the Zn^2+-binding motif and molecular modelling” (BMC Biochemistry, 2007).

In data set [1] the target is T1, Aminopeptidase B (His-rAp-B) (Rattus norvegicus, UniProt O09175).
T1 construct: gene Rnpep; His-tagged full-length rat Ap-B (673 residues incl. His-tag/Factor Xa site; 650-residue Ap-B) from E. coli
T1 sequence (O09175 1-650): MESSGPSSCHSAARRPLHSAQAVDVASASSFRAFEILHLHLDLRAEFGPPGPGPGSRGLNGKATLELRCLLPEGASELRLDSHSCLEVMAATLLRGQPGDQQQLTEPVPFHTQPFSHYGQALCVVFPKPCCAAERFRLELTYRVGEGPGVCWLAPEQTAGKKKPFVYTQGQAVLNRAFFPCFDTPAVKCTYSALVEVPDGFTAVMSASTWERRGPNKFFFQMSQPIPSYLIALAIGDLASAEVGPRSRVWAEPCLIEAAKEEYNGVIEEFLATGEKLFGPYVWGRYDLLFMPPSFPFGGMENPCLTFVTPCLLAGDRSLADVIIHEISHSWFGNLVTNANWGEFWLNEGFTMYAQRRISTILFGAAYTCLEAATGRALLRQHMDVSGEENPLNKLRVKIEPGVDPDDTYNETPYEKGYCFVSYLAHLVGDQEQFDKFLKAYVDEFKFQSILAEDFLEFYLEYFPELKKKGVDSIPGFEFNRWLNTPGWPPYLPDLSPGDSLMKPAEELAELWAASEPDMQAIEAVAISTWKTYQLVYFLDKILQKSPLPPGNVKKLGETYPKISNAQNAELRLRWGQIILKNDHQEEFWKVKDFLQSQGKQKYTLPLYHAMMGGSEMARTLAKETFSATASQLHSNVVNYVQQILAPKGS
Description: L-Arg-β-NA hydrolysis assay with recombinant enzyme; Ki and percent inhibition ([…] at […]). The format is biochemical.

Data set [2] addresses T1, Aminopeptidase B (His-rAp-B). Described as above. The data set is classed as biochemical. This is another data set of the same source.
Data set [3] has the same target. The data set is described as above. The data set is classed as biochemical. This is another data set of the same source.
Substrate in data set [4]: NCCCC[C@H](N)C(=O)Nc1ccc2ccccc2c1
Description: purified protein. The format is biochemical, Rattus norvegicus. Conditions: Zn2+.

Substrate in data set [5]: N=C(N)NCCC[C@H](N)C(=O)Nc1ccc2ccccc2c1
Description: purified protein. The data set is classed as biochemical, Rattus norvegicus. Conditions: Zn2+.

Where two headings read alike, the source gives them in different places.

Regarding `N=C(N)NCCC[C@H](N)C(=O)C[C@@H](Cc1ccc(O)cc1)C(=O)O` [Arphamenine B], the Ki (in general, a measure of affinity in units of concentration, obtained from inhibition or displacement) in data set [1] was 0.02 µM.

Take `NC(N)=NCCC[C@H](N)C(=O)C[C@@H](Cc1ccccc1)C(=O)O` [Arphamenine A]: the Ki in data set [2] came to 0.02 µM.

Regarding `CC(C)C[C@H](NC(=O)[C@@H](O)[C@H](N)Cc1ccccc1)C(=O)O` [Bestatin], in data set [3], the inhibition constant (Ki) turned out to be 0.05 µM.

B1: Aminopeptidase B (His-rAp-B) (Rattus norvegicus) (protein)
chain: T1 sequence (O09175 1-650)
notes: His-tagged full-length rat Ap-B (673 residues incl. His-tag/Factor Xa site; 650-residue Ap-B) from E. coli, Ni-NTA purified
As for B1, in the data set “purified protein [4]”, the Km (usually the substrate concentration at which the rate is half of its maximum) turned out to be 135 ± 30 µM; the Vmax – broadly, the rate approached at saturating substrate – was determined as 3.9 µM/min; the kcat – broadly, the number of substrate molecules converted per active site and unit of time at saturation – worked out at 3 ± 0.35 s⁻¹; the kcat/Km – broadly, the turnover number divided by the Michaelis constant – was determined as 22000 ± 2000 M⁻¹ s⁻¹. In the data set “purified protein [5]”, the Km was found to be 108 ± 13 µM, the Vmax was found to be 8.76 µM/min, the kcat was found to be 20 ± 3 s⁻¹ and the kcat/Km is 185000 M⁻¹ s⁻¹.
